Reference: patent US10450570B2, “Compositions and methods for controlling vasculature” (YALE UNIVERSITY, priority 2016, dated 2019)

Columns and labels:
HDLECs = assay: Glycolytic flux measurement (5-3H-glucose); assay type: cell-based, human
Method: Glycolysis was measured as previously described. Briefly, subconfluent HDLECs cultured in 12-well plates were incubated with 1 ml/well EBM2 medium (containing appropriate amount of serum and supplement) with 80 μCi/mmol 5-^3H-glucose (Perkin Elmer) for 2-3 hr. Then 0.8 ml/well medium was transferred into glass vials with hanging wells and filter papers soaked with H2O. After incubation in a cell culture incubator for at least 2 days to reach saturation, filter papers were taken out and the amount of evaporated ^3H2O was measured in a scintillation counter. Glucose oxidation, glutamine oxidation and fatty acid oxidation were measured essentially as reported. For measurement of glucose uptake, HDLECs were incubated with 2-[1-^14C]-deoxy-D-glucose (2.5 μCi/ml, Perkin Elmer) for 10 min. before PBS washing (at least 3 times to get rid of all radioactive medium) and then lysis with 500 μL 0.1 N NaOH. 400 μl NaOH cell lysate for each sample was transferred to scintillation vials containing scintillation liquid and measured.

[1] = test system: HK2 and other glycolytic enzymes in HDLECs; assay: Western blot of glycolytic enzyme expression in HDLECs; assay type: cell-based, human; settings: protein
Method: (§1) Human dermal lymphatic endothelial cells (HDLECs, HMVEC-dLyNeo-Der Lym Endo EGM-2MV) and Pooled human umbilical vein endothelial cells (HUVECs) were purchased from Lonza and cultured in EBM2 basal medium with EGM-2 MV BulletKit. Both cell types were tested negative for mycoplasma in Lonza. Culture medium was changed every the other day. Tissue culture plates were coated with 0.1% gelatin (Sigma) for 30 min at 37° C. and washed with Dulbecco's Phosphate-Buffered Saline (Life Technologies) before cell plating. For siRNA-mediated gene knockdown, FGFR1 siRNA (ON-TARGETplus human FGFR1 siRNA, Dharmacon; Hs_FGFR1_6, Qiagen), FGFR3 siRNA (Hs_FGFR3_6, Qiagen), HK2 siRNA (s6562 human HK2 siRNA, Life Technologies), c-Myc siRNA (ON-TARGETplus human Myc siRNA, Dharmacon), AllStar negative control siRNA (Qiagen), and ON-TARGETplus Non-targeting pool (Dharmacon) were transfected by lipofectamine RNAimax reagent (Life Technologies). Human FGF2 was provided by Kaken Pharmaceutical Co, Ltd (Japan) and ordered from Peprotech. Human VEGFC, VEGFD, IGF1, IGF2 and PDGFBB were purchased from Peprotech. To assay the effect of FGFR1 knockdown on glycolytic enzyme expression, HDLECs, transfected with control or FGFR1 siRNA 3 days in advance, were replated and collected for protein analysis 24 hr later when the cell confluency reached ˜80%. […] ImageJ was used for densitometry quantification of western blot bands.

[2] = test system: FGF2-induced ERK activation in HDLECs; assay: FGF2-induced ERK activation, Western blot of phosphorylated and total ERK; assay type: cell-based, human; settings: HDLECs infected with adenovirus, serum-starved, stimulated with FGF2
Method: as §1, with “bands. […]” for “bands.”

[3] = test system: tail skin lymphatic formation; assay: Tail skin lymphatic formation in neonatal mice after adenovirus injection; assay type: in vivo; settings: adenovirus injected into mouse pups at P0 and P1, examined at P6
Text: Adenovirus encoding GFP, empty CMV vector, sFGFR1-IIIC (Murakami, M. et al., 118, 3355-3366, (2008)), HK2 (Wu, R. et al. Circulation research 108, 60-69, (2011)), or Myc (from Vector Biolabs) for in vitro experiments was amplified in 293A cells according to the user manual of ViraPower™ Adenoviral Expression System (Life Technologies). Virus was tittered using Adeno-X™ Rapid Titer Kit (Clontech Laboratories). For in vivo experiments, LacZ- or sFGFR1-IIIC was amplified and purified at University of North Carolina virus vector core. Neonatal pups were injected i.p. with 5×10^8 FFU of LacZ or sFGFR1-IIIC virus at P0 and P1. Tail skin was harvested at P6 using a method published previously (Xu, Y. et al., J Cell Biol 188, 115-130, (2010)).

Row | Molecule | glycolytic flux (HDLECs) | glycolytic enzyme (HK2) expression [1] | FGF2-induced ERK activation [2] | tail skin lymphatic formation [3]
1 | VEGFC: Human VEGFC growth factor purchased from Peprotech (protein, UniProt P49767 112-227, looked up) Vascular endothelial growth …: AHYNTEILKSIDNEWRKTQCMPREVCIDVGKEFGVATNTFFKPPCVSVYRCGGCCNSEGLQCMNTSTSYLSKTLFEITVPLSQGPKPVTISFANHTSCRCMSKLDVYRQVHSIIRR | increased glycolytic flux, albeit to a lesser extent than FGF2 | increased HK2 expression without affecting other enzymes |  | 
2 | sFGFR1-IIIC: soluble pan-FGF receptor trap, delivered by adenovirus (protein, UniProt P11362 22-376, looked up, extracellular domain IIIc isoform, adenovirus-delivered) extracellular domain: RPSPTLPEQAQPWGAPVEVESFLVHPGDLLQLRCRLRDDVQSINWLRDGVQLAESNRTRITGEEVEVQDSVPADSGLYACVTSSPSGSDTTYFSVNVSDALPSSEDDDDDDDSSSEEKETDNTKPNRMPVAPYWTSPEKMEKKLHAVPAAKTVKFKCPSSGTPNPTLRWLKNGKEFKPDHRIGGYKVRYATWSIIMDSVVPSDKGNYTCIVENEYGSINHTYQLDVVERSPHRPILQAGLPANKTVALGSNVEFMCKVYSDPQPHIQWLKHIEVNGSKIGPDNLPYVQILKTAGVNTTDKEMEVLHLRNVSFEDAGEYTCLAGNSIGLSHHSAWLTVLEALEERPAVMTSPLYLE |  |  | inhibited FGF2-induced ERK activation to the same extent as DN-FGFR1 | significant inhibition of tail skin lymphatic formation
3 | VEGFD: Human VEGFD growth factor purchased from Peprotech (protein, UniProt O43915 89-205, looked up) Vascular endothelial growth …: FAATFYDIETLKVIDEEWQRTQCSPRETCVEVASELGKSTNTFFKPPCVNVFRCGGCCNEESLICMNTSTSYISKQLFEISVPLTSVPELVPVKVANHTGCKCLPTAPRHPYSIIRR | no effect |  |  | 
4 | PDGFBB: platelet-derived growth factor-BB, purchased from Peprotech (protein, UniProt P01127 82-190, looked up) Platelet-derived growth …: SLGSLTIAEPAMIAECKTRTEVFEISRRLIDRTNANFLVWPPCVEVQRCSGCCNNRNVQCRPTQVQLRPVQVRKIEIVRKKPIFKKATVTLEDHLACKCETVAAARPVT | reduced flux |  |  | 
